From paper PMC3471760
Blank lines part the entries; values can stand above or below the molecule they belong to.

Experiments:
[1] = molecular target: YFP-TRPV6 (human ('hTRPV6' in p-0012; the printed GenBank AF160798 is rat, from memory)); experiment: FRET or BRET
[2] = molecular target: CFP-N198-TRPV6 (human ('hTRPV6' in p-0012; the printed GenBank AF160798 is rat, from memory)); experiment: FRET or BRET
Sequence of CFP-N198-TRPV6 (human ('hTRPV6' in p-0012; the printed GenBank AF160798 is rat, from memory)) (Q9R186 whole entry): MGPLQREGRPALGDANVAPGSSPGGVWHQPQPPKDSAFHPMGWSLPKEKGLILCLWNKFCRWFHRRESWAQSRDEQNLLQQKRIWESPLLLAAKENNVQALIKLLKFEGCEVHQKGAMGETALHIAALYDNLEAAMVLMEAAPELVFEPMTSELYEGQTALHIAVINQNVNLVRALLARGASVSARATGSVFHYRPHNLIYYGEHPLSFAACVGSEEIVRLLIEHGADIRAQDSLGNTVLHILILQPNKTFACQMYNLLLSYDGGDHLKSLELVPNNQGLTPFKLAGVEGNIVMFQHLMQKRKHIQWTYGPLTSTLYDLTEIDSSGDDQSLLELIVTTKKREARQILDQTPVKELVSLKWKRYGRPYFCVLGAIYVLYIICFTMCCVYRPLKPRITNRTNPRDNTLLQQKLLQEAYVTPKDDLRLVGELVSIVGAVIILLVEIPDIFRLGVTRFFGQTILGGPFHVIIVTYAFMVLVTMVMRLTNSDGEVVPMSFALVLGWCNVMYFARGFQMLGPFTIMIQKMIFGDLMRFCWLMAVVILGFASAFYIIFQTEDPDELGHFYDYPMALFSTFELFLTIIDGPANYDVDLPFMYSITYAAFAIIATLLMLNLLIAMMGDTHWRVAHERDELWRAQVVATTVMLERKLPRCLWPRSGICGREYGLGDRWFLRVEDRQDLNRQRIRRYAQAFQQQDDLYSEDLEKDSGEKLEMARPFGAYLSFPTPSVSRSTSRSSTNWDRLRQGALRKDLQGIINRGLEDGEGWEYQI

Sequence of YFP-TRPV6 (human ('hTRPV6' in p-0012; the printed GenBank AF160798 is rat, from memory)) (Q9R186 whole entry): as above

Molecule: CFP-TRPC1 (from UniProt P48995-2 1-759) (natural protein)
FRET [1]: 0.07

Molecule: CFP-TRPC4 (from UniProt Q9QUQ5-1 1-974) (natural protein)
FRET [1]: 0.02

Molecule: YFP-N193-TRPC1 (from UniProt P48995-2 1-193) (domain or fragment)
FRET [2]: 0.11

Second part, the molecule after the results:

FRET [1]: 0.02
Molecule: CFP-TRPC5 (from UniProt Q9QX29 1-975) (natural protein)

FRET [1]: 0.01
B1: CFP-TRPC3 (natural protein)
chain: MSTKVRKCKEQARVTFPAPEEEEDEGEDEGAEPQRRRRGWRGVNGGLEPRSAPSQREPHGYCPPPFSHGPDLSMEGSPSLRRMTVMREKGRRQAVRGPAFMFNDRGTSLTAEEERFLDAAEYGNIPVVRKMLEESKTLNVNCVDYMGQNALQLAVGNEHLEVTELLLKKENLARIGDALLLAISKGYVRIVEAILNHPGFAASKRLTLSPCEQELQDDDFYAYDEDGTRFSPDITPIILAAHCQKYEVVHMLLMKGARIERPHDYFCKCGDCMEKQRHDSFSHSRSRINAYKGLASPAYLSLSSEDPVLTALELSNELAKLANIEKEFKNDYRKLSMQCKDFVVGVLDLCRDSEEVEAILNGDLESAEPLEVHRHKASLSRVKLAIKYEVKKFVAHPNCQQQLLTIWYENLSGLREQTIAIKCLVVLVVALGLPFLAIGYWIAPCSRLGKILRSPFMKFVAHAASFIIFLGLLVFNASDRFEGITTLPNITVTDYPKQIFRVKTTQFTWTEMLIMVWVLGMMWSECKELWLEGPREYILQLWNVLDFGMLSIFIAAFTARFLAFLQATKAQQYVDSYVQESDLSEVTLPPEIQYFTYARDKWLPSDPQIISEGLYAIAVVLSFSRIAYILPANESFGPLQISLGRTVKDIFKFMVLFIMVFFAFMIGMFILYSYYLGAKVNAAFTTVEESFKTLFWSIFGLSEVTSVVLKYDHKFIENIGYVLYGIYNVTMVVVLLNMLIAMINSSYQEIEDDSDVEWKFARSKLWLSYFDDGKTLPPPFSLVPSPKSFVYFIMRIVNFPKCRRRRLQKDIEMGMGNSKSRLNLFTQSNSRVFESHSFNSILNQPTRYQQIMKRLIKRYVLKAQVDKENDEVNEGELKEIKQDISSLRYELLEDKSQATEELAILIHKLSEKLNPSMLRCE
